Results reported in US20240417475A1 (AFFIMED, published 2024).

B1: scFv-IgAb_264 (CD123-2×CD16a2) (bispecific antibody)
chain 1: QVQLVQSGAEVKKPGASVKMSCKASGYTFTDYYMKWVKQAPGQGLEWIGDIIPSNGATFYNQKFKGKATLTVDRSISTAYMHLNRLRSDDTAVYYCTRSHLLRASWFAYWGQGTLVTVSSASTKGPSVFPLAPSSKSTSGGTAALGCLVKDYFPEPVTVSWNSGALTSGVHTFPAVLQSSGLYSLSSVVTVPSSSLGTQTYICNVNHKPSNTKVDKKVEPKSCDKTHTCPPCPAPEFEGGPSVFLFPPKPKDTLMISRTPEVTCVVVAVSHEDPEVKFNWYVDGVEVHNAKTKPREEQYNSTYRVVSVLTVLHQDWLNGKEYKCKVSNKALPAPIEKTISKAKGQPREPQVYTLPPSREEMTKNQVSLTCLVKGFYPSDIAVEWESNGQPENNYKTTPPVLDSDGSFFLYSKLTVDKSRWQQGNVFSCSVMHEALHNHYTQKSLSLSPGGGGGSGGGGSGGGGSGGGGSGGGGSGGGGSSYELTQPLSVSVALGQTARITCGGHNIGSKNVHWYQQKPGQAPVLVIYQDNKRPSGIPERFSGSNSGNTATLTISRAQAGDEADYYCQVWDNYNVLFGCGTKLTVLGGSGGSGGSGGSGGSGGSGGSQVQLVQSGAEVKKPGASVKVSCKASGYTFTSYYMHWVRQAPGQCLEWMGAIEPRYGSTSYAQKFQGRVTMTRDTSTSTVYMELSSLRSEDTAVYYCARGSAYYYDFADYWGQGTLVTVSS
chain 2: not shown
notes: also called scFv-IgAb_264 (CD16a1×CD123-2); CD123-1×CD16a2 scFv-IgAb_264
B2: scFv-IgAb_444 (RSV×CD16A) (bispecific antibody)
chain 1: QVTLRESGPALVKPTQTLTLTCTFSGFSLSTAGMSVGWIRQPPGKALEWLADIWWDDKKHYNPSLKDRLTISKDTSKNQVVLKVTNMDPADTATYYCARDMIFNFYFDVWGQGTTVTVSSASTKGPSVFPLAPSSKSTSGGTAALGCLVKDYFPEPVTVSWNSGALTSGVHTFPAVLQSSGLYSLSSVVTVPSSSLGTQTYICNVNHKPSNTKVDKKVEPKSCDKTHTCPPCPAPEFEGGPSVFLFPPKPKDTLMISRTPEVTCVVVAVSHEDPEVKFNWYVDGVEVHNAKTKPREEQYNSTYRVVSVLTVLHQDWLNGKEYKCKVSNKALPAPIEKTISKAKGQPREPQVYTLPPSREEMTKNQVSLTCLVKGFYPSDIAVEWESNGQPENNYKTTPPVLDSDGSFFLYSKLTVDKSRWQQGNVFSCSVMHEALHNHYTQKSLSLSPGGGGGSGGGGSGGGGSGGGGSGGGGSGGGGSSYELTQPLSVSVALGQTARITCGGNNIGSKSVHWYQQKPGQAPVLVIYQDKKRPSGIPERFSGSNSGNTATLTISRAQAGDEADYYCQVWDDYIVLFGCGTKLTVLGGSGGSGGSGGSGGSGGSGGSQVQLVQSGAEVKKPGASVKVSCKASGYTFTNYYMQWVRQAPGQCLEWMGIINPSGGVTSYAQKFQGRVTMTRDTSTSTVYMELSSLRSEDTAVYYCARGSAYYYDFADYWGQGTLVTVSSG
chain 2: DIQMTQSPSTLSASVGDRVTITCSASSRVGYMHWYQQKPGKAPKLLIYDTSKLASGVPSRFSGSGSGTEFTLTISSLQPDDFATYYCFQGSGYPFTFGGGTKVEIKRTVAAPSVFIFPPSDEQLKSGTASVVCLLNNFYPREAKVQWKVDNALQSGNSQESVTEQDSKDSTYSLSSTLTLSKADYEKHKVYACEVTHQGLSSPVTKSFNRGEC
notes: also called RSV/CD16A scFv-IgAb_444; RSV(NIST)×CD16A

Experiments:
[1] = target: recombinant human CD16A^158F, biotinylated, mFc.silenced/Avi-tagged (human, UniProt P08637 17-208, biotinylated (Avi-tag)); assay: SPR (Biacore T200), 37 °C, multivalent multi-cycle kinetics, biotin-captured antigen as ligand, construct as analyte, 1:1 binding model, n=3
Experimental: (§1) For multivalent interaction analysis, biotinylated-mFc.silenced/Avi-tagged antigens were captured (FC2, FC4) to a density of 120-200RU, before CD123×CD16A ICE were injected (concentration: 0-60 nM) for 240s at a flow rate of 40 μL/min and complex was left to dissociate for 300s at the same flow rate.
(§2) After each cycle, chip surfaces were regenerated with 6M guanidine-HCl, 0.25M NaOH and reloaded with Biotin Capture reagent. Interaction kinetics were determined by fitting data from multi-cycle kinetics experiments to a simple 1:1 interaction model using the local data analysis option (Rmax and RI) available within Biacore T200 Evaluation Software (v3.1). Referencing was done against a flow cell without captured ligand (Fc2-Fc1, Fc4-Fc3).

[2] = target: recombinant cynomolgus CD16, biotinylated, mFc.silenced/Avi-tagged (cynomolgus, UniProt Q8SPW2 17-208, biotinylated (Avi-tag)); assay: as above
Experimental: as §1, §2

[3] = target: T1, recombinant human CD16A^158V, biotinylated, mFc.silenced/Avi-tagged (human, UniProt P08637 17-208, biotinylated (Avi-tag)); assay: as above
T1 construct: also called CD16^158V
Experimental: as §1, §2

[4] = target: T2, CD16A endogenously expressed on primary human NK cells (human, UniProt P08637 17-254); assay: flow cytometry on primary human NK cells, with against without 10 mg/mL polyclonal human IgG
Experimental: (§3) 4° C., and resuspended in 50 μL/well of diluted antibody constructs. […] After 40-50 minutes' incubation at 37° C., cells were washed 3-times with ice-cold FACS buffer. […] After the final incubation step, cells were washed 2-times with ice-cold FACS buffer, and the cell pellet was resuspended in 50 μL FACS buffer. Fluorescence intensity of >1×10⁴ viable cells was analyzed by flow cytometry and the median fluorescence intensity (MFI) was determined for each sample.
(§4) Equilibrium dissociation constants (KD) of antibody binding were calculated by plotting MFI values and fitting a non-linear regression model for one-site binding to hyperbolic dose-response curves using GraphPad Prism.

[5] = target: T3, human FOLR1 endogenously expressed on tumor cell lines (human, UniProt P15328 25-234); assay: cell-based or functional assay
[6] = target: T2, CD16A endogenously expressed on primary …; assay: flow cytometry on primary human NK cells, biotinylated antibody, 37 C, without IgG, mean of 4
Experimental: as §3, §4

[7] = target: T2, CD16A endogenously expressed on primary …; assay: flow cytometry on primary human NK cells, biotinylated antibody, 37 C, with 10 mg/mL polyclonal human IgG as competitor, mean of 4
Experimental: as §3, §4

[8] = target: T3, human FOLR1 endogenously expressed on …; assay: flow cytometry on IGROV-1 cells (FOLR1 high) at 37 °C, FITC anti-human IgG detection
Experimental: Cells were collected and centrifuged at 400×g, 5 min, 4° C. Cell pellets were resuspended in FACS buffer (PBS (Invitrogen, cat.: 392-0434) containing 2% h.i. FCS (Invitrogen, cat.: 10500-064), and 0.1% sodium azide (Sigma, cat.: S8032)) at 1-5×10⁶ cells/mL. 100 μL/well of the cell suspension were transferred into U-shaped, 96-well micro plates (0.1-0.5×10⁶ cells per well), cells were pelleted at 400×g, 5 min, 4° C., and resuspended in 100 μL/well of serial dilutions of the indicated antibodies in FACS buffer. After 40-50 min incubation at 37° C., cells were washed 3-times with ice-cold FACS buffer. […] After the final incubation step, cells were washed 2-times with ice-cold FACS buffer, and the cell pellet was resuspended in 100 μL FACS buffer. Fluorescence intensities of >1×10⁴ viable cells were analyzed by flow cytometry and the median fluorescence intensity (MFI) was determined for each sample.

[9] = target: T2, CD16A endogenously expressed on primary …; assay: flow cytometry on primary human NK cells at 37 °C, biotinylated antibody, streptavidin-FITC, in the presence of 10 mg/mL polyclonal human IgG (competitor)
Experimental: (§5) Frozen NK cells were thawed, and viability was determined with trypan blue (Sigma-Aldrich, cat.: T8154). Cells have been centrifuged at 400×g, 5 min, 4° C. Cell pellets were resuspended in FACS buffer PBS (Invitrogen, cat.: 392-0434) containing 2% h.i. FCS (Invitrogen, cat.: 10500-064), and 0.1% sodium azide (Sigma, cat.: S8032) at 2×10⁶ cells/mL. 100 μL/well of the cell suspension were transferred into U-shaped 96 well plates, cells were pelleted at 400×g, 5 min. 4° C., and resuspended in 50 μL/well of diluted antibody constructs. […] After 40-50 minutes' incubation at 37° C., cells were washed 3-times with ice-cold FACS buffer. […] After the final incubation step, cells were washed 2-times with ice-cold FACS buffer, and the cell pellet was resuspended in 50 μL FACS buffer. Fluorescence intensity of >1×10⁴ viable cells was analyzed by flow cytometry and the median fluorescence intensity (MFI) was determined for each sample.

[10] = target: T2, CD16A endogenously expressed on primary …; assay: flow cytometry on primary human NK cells at 37 °C, biotinylated antibody, streptavidin-FITC, without polyclonal human IgG
Experimental: as §5

T1 sequence (P08637 17-208 F176V limits assumed): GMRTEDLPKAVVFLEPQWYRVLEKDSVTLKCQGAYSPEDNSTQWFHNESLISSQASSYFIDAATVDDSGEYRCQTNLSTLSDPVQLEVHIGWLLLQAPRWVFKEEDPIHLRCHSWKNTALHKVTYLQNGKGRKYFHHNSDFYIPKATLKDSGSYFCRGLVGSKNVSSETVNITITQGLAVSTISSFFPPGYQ
T3 sequence (P15328 25-234): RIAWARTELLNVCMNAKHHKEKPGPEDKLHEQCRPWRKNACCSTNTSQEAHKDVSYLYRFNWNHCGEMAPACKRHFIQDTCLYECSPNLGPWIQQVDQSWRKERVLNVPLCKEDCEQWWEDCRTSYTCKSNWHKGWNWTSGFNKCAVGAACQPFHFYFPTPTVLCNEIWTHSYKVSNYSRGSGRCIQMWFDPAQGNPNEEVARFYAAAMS
T2 sequence (P08637 17-254 limits assumed): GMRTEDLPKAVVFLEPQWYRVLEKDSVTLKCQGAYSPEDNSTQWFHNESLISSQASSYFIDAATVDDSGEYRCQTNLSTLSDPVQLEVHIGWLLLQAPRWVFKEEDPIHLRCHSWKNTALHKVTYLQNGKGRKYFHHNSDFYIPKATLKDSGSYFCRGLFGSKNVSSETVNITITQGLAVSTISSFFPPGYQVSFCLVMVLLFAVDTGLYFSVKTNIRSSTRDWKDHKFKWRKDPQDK
recombinant cynomolgus CD16, biotinylated, mFc.silenced/Avi-tagged, sequence (Q8SPW2 17-208): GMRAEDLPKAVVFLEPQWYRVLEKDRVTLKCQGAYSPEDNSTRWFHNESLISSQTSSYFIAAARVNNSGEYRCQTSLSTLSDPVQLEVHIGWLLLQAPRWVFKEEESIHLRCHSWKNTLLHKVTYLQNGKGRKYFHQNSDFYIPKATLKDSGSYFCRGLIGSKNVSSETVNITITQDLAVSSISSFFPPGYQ
recombinant human CD16A^158F, biotinylated, mFc.silenced/Avi-tagged, sequence (P08637 17-208): as the sequence (P08637 17-208 F176V limits assumed) above, with V160F counted along it

Binder | Kd [1] [nM] | koff [1] [s⁻¹] | kon [1] [M⁻¹ s⁻¹] | Kd [2] [nM] | koff [2] [s⁻¹] | kon [2] [M⁻¹ s⁻¹] | Kd [3] [nM] | koff [3] [s⁻¹] | kon [3] [M⁻¹ s⁻¹] | fold loss in KD induced by IgG [4] [fold] | Phagocytosis [%], 4 h ADCP, DK-MG cells [5] [%] | Phagocytosis [%], 4 h ADCP, HCC-78 cells [5] [%] | Phagocytosis [%], 4 h ADCP, HeLa cells [5] [%] | Kd [6] [nM] | Kd [7] [nM] | binding result [8] | EC50 (read off the curve) [9] [nM] | EC50 (read off the curve) [10] [nM]
B1 | 0.567 | 0.0036 | 6.4e+06 | 2.4 | 0.013 | 5.2e+06 | 0.43 | 0.0027 | 6.3e+06 | – | – | – | – | – | – | – | – | –
B2 | – | – | – | – | – | – | – | – | – | 5 | 0 | 0 | 0 | 3.8 | 19.9 | no binding (tested: about 500 nM) | 10 to 20 | ~4
